Experiment [1] has as its target extracellular region of human V158 FcγRIIIa with C-terminal 6x His-tag and GST-tag (human) (UniProt P08637). As to the kind of experiment: SPR; fold vs WT.
The target of experiment [2] is human FcγRIIIa on PBMCs expressing heterozygous V158/F158 FcγRIIIa (human) (UniProt P08637). The experiment in a line: cell-based or functional assay.

S267E alemtuzumab (antibody) had a Fold WT in experiment [1] of 2.62 fold.
Take T260H alemtuzumab (antibody): the Fold WT in experiment [1] turned out to be 1.86 fold.
Consider E272H alemtuzumab (antibody), for which the Fold WT in experiment [1] was found to be 384 fold.
As to E258Y alemtuzumab (antibody), the Fold WT in experiment [1] came out at 1.77 fold.
In experiment [1], K246Y alemtuzumab (antibody) registered a Fold WT of 7.07 fold.
Still for that read-out and setting: in the case of E283L alemtuzumab (antibody) it was 2.56 fold; in that of H268D alemtuzumab (antibody), 5.66 fold.
On the same count and under the same terms, in the case of R255Y alemtuzumab (antibody) it was 1.41 fold.
The substance I332D alemtuzumab (antibody) returned a Fold WT in experiment [1] of 11.2 fold.
For E258H alemtuzumab (antibody), the Fold WT in experiment [1] amounted to 5.5 fold.
On the same count and under the same terms, in the case of K326E alemtuzumab (antibody) it was 3.13 fold; in that of K246H alemtuzumab (antibody), 22.4 fold.
In turn, S239E alemtuzumab (antibody) returned a Fold WT in experiment [1] of 3.28 fold.
For V264I/I332E alemtuzumab (antibody), the ADCC log(EC50) in experiment [2] was 0.6 log(ng/ml).
Turning to S239D/I332E alemtuzumab (antibody), the ADCC log(EC50) in experiment [2] was 0.49 log(ng/ml).

(Values after patent EP3342782A1.)
